The supplement of paper PMC9170038

System: MS2 coat protein
Assay: apparent KD of MS2 coat protein; higher = weaker reporter binding
Settings: Eterna round: R107
Summary of the method: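 Designed RNA switches were made by on-chip transcription from Illumina sequencing clusters and then titrated with SNAP-549-labelled MS2 coat protein. Twofold steps ran from 0.7 or 1.5 nM to 3 µM, each lasting 0.8–1.5 h early and 10–20 min late, in 100 mM Tris-HCl pH 7.5, 80 mM KCl, 4 mM MgCl2, without or with constant ligand. Apparent KD is the per-design median of normalised cluster binding-curve fits.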

[1] = input ligand: theophylline 20 uM
[2] = input ligand: theophylline 2 mM
[3] = input ligand: tryptophan 2.4 mM

| Sequence | apparent KD of MS2 coat protein (input ligand: arginine 13.2 mM) [µM] | apparent KD of MS2 coat protein (input ligand: none) [µM] | apparent KD of MS2 coat protein [1] [µM] | apparent KD of MS2 coat protein [2] [µM] | apparent KD of MS2 coat protein [3] [µM] |
| --- | --- | --- | --- | --- | --- |
| AGUACUCGAACGGAUACCAGCCGGACAUGAGGAUCACCCAUGUCCUACCAUUGUUCGGUUGGCCCUUGGCAGCCGUUCGUGUACA [Omei Theo B SS A v4] | 0.125 | 0.93 | 0.366 | 0.0267 | 0.591 |
| AGUAUACAUUCUGAUACCAGAGACAUGAGGAUCACCCAUGUCCGAUCGUCCUGCCUCAGACUCCCUUGGCAGCAGGAUAUGUGCU [Exclusion Theophylline B GF5] | 0.0162 | – | 0.0218 | – | 0.0166 |
| AGUCUUAAAGGAAGGAGCGCAGUCAUAACAUGAGGAUCACCCAUGUCGAGGUGAGGGUCAUUGCAGGUAGGUCGCCUUACUAAGA [Same State - Arginine B (Freestyle 6)] | 0.0777 | 0.114 | 0.118 | 0.133 | 0.0961 |
| AGUCUUAAUGGAAGGAGCGCAGUCAUAACAUGAGGAUCACCCAUGUCGAGGUGAGGGUCAUUGCAGGUAGGUCGCCAUACUAGAA [Same State - Arginine B (Freestyle 1)] | 0.131 | 0.153 | 0.222 | 0.186 | 0.125 |
| AGUGAUGACCGAAGGAGCGCGGGAAACAUGAGGAUCACCCAUGUACUCCUCAGUGUUAUAACGCAGGUAGGUCGCGGUUAUGGCU [X-ArgiB-ms2@26] | 0.148 | 0.18 | 0.296 | 0.328 | 0.279 |
| AGUUAAAUAUGUUAAUAACUAUUUACUGAAGGAGCGUGUUUUUACACAGGUAGGUCGCAGUGACAUGAGGAUCACCCAUGUAGUA [JR_SSArginiA_Sub012] | 0.0313 | 0.0375 | 0.0497 | 0.0435 | 0.0334 |
| AUACAUGAGGAUCACCCAUGUCAUUCAGAAGGAGCGUCAUUAUUGACAGGUAGGUCGCUGAUAAAAUUUUUAUACAUUAUGUUUA [JR_SSArginiA_Sub014] | 0.0319 | 0.0163 | 0.0209 | 0.0181 | 0.0173 |
| AUACAUGAGGAUCACCCAUGUCAUUCAGAAGGAGCGUCAUUUUAGACAGGUAGGUCGCUGUUAUUUUUAUUAUUCUUUAUGUUUU [JR_Nu_ExcArginiA_Sub025] | 0.0194 | 0.0201 | 0.0272 | 0.0213 | 0.0205 |
| AUAGUCUAGAGUGAUACCAGACAACAUGAGGAUCACCCAUGUAGCAUAUGGUUAUCAUGAGUCCCUUGGCAGCACGCAUGUAUAG [JR_ExcTheophyB_Sub012] | 0.0134 | – | 0.0199 | – | 0.0132 |
| AUAUGAAAGAGUGAUACCAGACUACAUGAGGAUCACCCAUGUGACAUUUAAAUAUCAUUUGUCCCUUGGCAGCACAUUAAGUACA [JR_Nu_ExcTheophyB_Sub021] | 0.0357 | – | 0.0469 | – | 0.043 |
| AUAUGAUCAUAUGAUACCAGAAAUGGUAUUCCUUUGUUUCUUACAUGAGGAUCACCCAUGUUCCCUUGGCAGCAUAUGAUCAUAU [ETHB #2] | 0.159 | – | 0.221 | – | 0.238 |
| AUAUGAUCAUGUGAUACCAGAAAUGGUAGUCCUCGCUGGAUUACAUGAGGAUCACCCAUGUUCCCUUGGCAGCAUAUGAUCAUAU [#02 Exclusion-TheophyllineB] | 0.0505 | – | 0.122 | – | 0.0609 |
| AUAUUACAUGUUAUUAUACGGUAUACUGAUACCAGUGUUUCUAUUCACCCUUGGCAGCAGCAACAUGAGGAUCACCCAUGUAUUA [JR_SSTheophyA_Sub018] | 0.0156 | – | 0.019 | – | 0.018 |
| AUCUCGUUCAAUAUACCGCCUUGACUAGAUACCAGCAUGGACCCAUGCCCUUGGCAGCUGGACAUGAGGAUCACCCAUGUUUCAG [SSTheo A #27] | 0.0107 | – | 0.0148 | – | 0.0108 |
| AUGCAGAGCACGGCCGCCACUCCAUGUAUACAUGAGGAUCACCCAUGUAAUUUGUAUUUUUUAUAGAGGACCGGGUGAAAUGCAA [JR_SSTryptoB_Sub011] | 0.0414 | – | 0.0341 | 0.0362 | – |
| AUGGCGUUGGUGGAGCGGUGAAAUGGCGAUACCAGCGUGGAAACACGCCCUUGGCAGCGCCAAAACAUGAGGAUCACCCAUGUUA [Usti] | 0.0189 | 0.0203 | 0.046 | 0.0598 | 0.0181 |
